The target of experiment [1] is human MSLN expressed on cancer cell surface (human) (UniProt Q13421). Description: flow cytometry on Capan2 cells expressing MSLN, control antibody, PE-conjugated anti-human IgG detection.
Experiment [2] has the same target. Briefly: flow cytometry on H226 cells expressing MSLN, control antibody, PE-conjugated anti-human IgG detection. (In general: A flow cytometer gives signals particle by particle.)
For experiment [3] the target is unchanged. Description: flow cytometry on PL45 cells expressing MSLN, control antibody, PE-conjugated anti-human IgG detection.
The target is the same in experiment [4]. Description: flow cytometry on AsPC1 cells expressing MSLN, control antibody, PE-conjugated anti-human IgG detection.
The target in the next experiment is T1, recombinant human MSLN (human, UniProt Q13421 296-580, limits assumed).
T1 construct: It was fixed to an anti-Penta His (HIS1K) sensor, so a His tag is implied; also called recombinant MSLN; mesothelin
Description: BLI (Octet), MSLN on anti-Penta His sensor, antibody 3.125-50 nM. The protocol:
Specifically, recombinant human MSLN was prepared at a concentration of 5 μg/ml in 1× kinetic buffer and used to treat a 96-well-plate at 200 μl/well. The MSLN after treatment was fixed to the anti-Penta His (HIS1K, Cat #18-5121, Fortebio) sensor.
Then, the 3 humanized anti-MSLN antibodies produced in accordance with Example 1 and the mouse human chimeric MI323 IgG1 clones were diluted to a concentration of 50, 25, 12.5, 6.25, or 3.125 nM in 1× kinetic buffer, and treatment therewith was performed at 200 μl/well. For the 1×kinetic buffer, one obtained by 10-fold dilution of 10×kinetic buffer (ForteBio, Cat #18-1092) with PBS was used.
The interaction between the MSLN fixed to the sensor and the antibody at several concentrations was analyzed to calculate antigen-antibody affinity, and the results are shown in Table 4 below.
On the technique in general: In BLI a coated tip is dipped into the sample, and binding shifts an interference pattern.

For orientation: Kd means the concentration at which binding is half-saturated. The term koff denotes the first-order rate constant of dissociation. As a reminder, the kon is the second-order rate constant of association.

human MSLN expressed on cancer cell surface (human), sequence (Q13421 other isoform, or with tags, fused parts or gaps limits assumed): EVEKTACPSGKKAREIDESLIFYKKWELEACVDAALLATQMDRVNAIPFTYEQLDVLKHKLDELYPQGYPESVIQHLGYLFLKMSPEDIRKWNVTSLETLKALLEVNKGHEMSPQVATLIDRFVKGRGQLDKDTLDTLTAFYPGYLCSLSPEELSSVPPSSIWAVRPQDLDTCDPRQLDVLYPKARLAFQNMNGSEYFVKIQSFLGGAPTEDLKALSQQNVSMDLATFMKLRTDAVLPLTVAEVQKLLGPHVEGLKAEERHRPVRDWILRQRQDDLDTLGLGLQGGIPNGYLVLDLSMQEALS
T1 sequence (Q13421 other isoform, or with tags, fused parts or gaps limits assumed): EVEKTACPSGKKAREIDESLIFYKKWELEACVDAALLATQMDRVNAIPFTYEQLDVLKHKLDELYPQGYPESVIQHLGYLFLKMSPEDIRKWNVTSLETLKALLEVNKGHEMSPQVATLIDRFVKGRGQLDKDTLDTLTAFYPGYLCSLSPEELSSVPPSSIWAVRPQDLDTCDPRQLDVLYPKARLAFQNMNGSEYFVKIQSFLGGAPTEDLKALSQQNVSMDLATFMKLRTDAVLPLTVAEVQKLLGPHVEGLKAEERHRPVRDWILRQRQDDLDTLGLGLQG

For hIgG (antibody), the MFI was determined as 169 in experiment [1], 120 in experiment [2], 96.5 in experiment [3] and 85.9 in experiment [4].

B1: HMI323VL-1/HMI323VH-3 IgG1 (antibody, V domains shown)
VH: EVQLVQSGAEVKKPGTSVKVSCKASGYSFTSYFIQWVRQAPGQGLEWIGWIFPGSGNTKYSQKFQGRVTITRDTSTSTAYMELSSLRSEDTAVYYCARSGGYQYYFDYWGQGTLVTVSS
VL: DIQMTQSPSSLSASVGDRVTITCRASQDVSTAVAWYQQKPGKAPKLLIYSASYRYPGVPSRFSGSGSGTDFTLTISSLQPEDFATYYCQQHYSTPWTFGGGTKLEIKR
notes: also called humanized MI323 IgG1
With B1, in the experiment with recombinant human MSLN, the Kd was determined as 0.0327 nM, the off-rate (koff) was determined as 2.75e-05 s⁻¹ and the kon is 842000 M⁻¹ s⁻¹.

B2: HMI323VL-1/HMI323VH-2 (antibody, human IgG1, kappa, V domains shown)
VH: QVQLVQSGAEVKKPGSSVKVSCKASGYSFTSYFISWVRQAPGQGLEWMGGIFPGSGNANYAQKFQGRVTITADESTSTAYMELSSLRSEDTAVYYCARSGGYQYYFDYWGQGTLVTVSS
VL: DIQMTQSPSSLSASVGDRVTITCRASQDVSTAVAWYQQKPGKAPKLLIYSASYRYPGVPSRFSGSGSGTDFTLTISSLQPEDFATYYCQQHYSTPWTFGGGTKLEIKR
notes: also called humanized MI323 IgG1 (VL-1/VH-2)
In the case of B2, in the experiment with recombinant human MSLN, the Kd is 0.273 nM, the dissociation rate constant (koff) amounted to 0.000509 s⁻¹ and the kon came to 1.86e+06 M⁻¹ s⁻¹.

B3: HMI323VL-1/HMI323VH-1 (antibody, human IgG1, kappa, V domains shown)
VH: QVQLVQSGAEVKKPGASVKVSCKASGYSFTSYFMHWVRQAPGQRLEWMGWIFPGNGNTKYSQKFQGRVTITRDTSASTAYMELSSLRSEDTAVYYCARSGGYQYYFDYWGQGTLVTVSS
VL: DIQMTQSPSSLSASVGDRVTITCRASQDVSTAVAWYQQKPGKAPKLLIYSASYRYPGVPSRFSGSGSGTDFTLTISSLQPEDFATYYCQQHYSTPWTFGGGTKLEIKR
notes: also called humanized MI323 IgG1 (VL-1/VH-1)
With B3, in the experiment with recombinant human MSLN, the Kd turned out to be 0.139 nM, the koff stood at 9.25e-05 s⁻¹ and the on-rate (kon) was 665000 M⁻¹ s⁻¹.

B4: mouse/human chimeric MI323 IgG1 (antibody, V domains shown)
VH: EVQLQQSGPELVKPGTSVKISCKASGYSFTSYFIQWVKQRPGQGLEWIGWIFPGSGNTKYNEMFKGKATLAADTSSSTAYMQLSSLTSEDSAVYFCARSGGYQYYFDYWGQGTSVTVSS
VL: DIVMTQSHKFMSTSVGDRVSITCKASQDVSTAVAWYQQKPGQSPKLLIYSASYRYPGVPDRFTGSGSGTDFTFTISSVQAEDLALYYCQQHYSTPWTFGGGTKLEIKR
notes: Control antibody; also called mouse human chimeric MI323 IgG1 antibody; MI323 antibody
In the case of B4, in the experiment with recombinant human MSLN, the dissociation constant Kd worked out at 0.0286 nM, the koff turned out to be 1.3e-05 s⁻¹ and the on-rate constant (kon) was found to be 454000 M⁻¹ s⁻¹.

The record behind these values is patent US20200262928A1 (GREEN CROSS, published 2020).
